Assay: soluble on expression in E. coli; label from the status in PepcDB or PDB records

| Sequence | soluble on expression in E. coli |
| --- | --- |
| MGSDKIHHHHHHMQIYASLLLILKLERKLCIFSGKVMELYEMYYFAFNKSSEPMLFADPNTGRIFDVNQAFLALLGYAKDEVMVKTTFDLGLLPEEDSQPRQPLWVKTKNGSLKSGMVSATDLVHKEKMMRLMVFQEQSENGNFTLEEMLTQTISLISKISEFRDPYTSGHQKRTQKLACAIASEMKLSGEAIHHVSMAAAIHDVGKIYISSDILNKPGKLTQLEYQMLQTHVEVGYEIIKDFQLPWQIPEIISQHHERLDGSGYPKGLTASQIFLESKILAVADVVDAMNSHRPYRPALGIEAALEEICNYKGEKYDSEVVEHCVRLFKEKQAMPNRFKI | not soluble |
| MHDANIRVAIAGAGGRMGRQLIQAALALEGVQLGAALEREGSSLLGSDAGELAGAGKTGVTVQSSLDAVKDDFDVFIDFTRPEGTLNHLAFCRQHGKGMVIGTTGFDEAGKQAIRDAAADIAIVFAANFSVGVNVMLKLLEKAAKVMGDYTDIEIIEAHHRHKVDAPSGTALAMGEAIAHALDKDLKDCAVYSREGHTGERVPGTIGFATVRAGDIVGEHTAMFADIGERLEITHKASSRMTFANGAVRSALWLSGKESGLFDMRDVLDLNNL | soluble |
| MGHHHHHHSHMNFAGKHVGFGLTGSHCTYHEVLPQMERLVELGAKVTPFVTHTVQTTDTKFGESSEWINKIKQITEEPIVDSMVKAEPFGPKTPLDCMVIAPMTGNSTSKFANAMTDSPVLMGAKATLRNGKPVVVGISTNDALGLNGINIMRLMATKNIYFIPFGQDNPQVKPNSLVARMEALPETIEAALRGQQYQPVLIEKFRD | soluble |
| MLPERVLEILREMKRERIKGASWLAKKGAEAFLTLAEELDESLLEDAIMELREEVVKVNPSMASLYNLARFIPVTNRRDILKSRALEFLRRMEEAKRELASIGAQLIDDGDVIITHSFSSTVLEIIRTAKERKKRFKVILTESSPDYEGLHLARELEFSGIEFEVITDAQMGLFCREASIAIVGADMITKDGYVVNKAGTYLLALACHENAIPFYVAAETYKFHPTLKSGDVMLMERDLIRGNVRIRNVLFDVTPWKYVRGIITELGIVIPPRDIQLEHHHHHH | not soluble |
| MEYSRDSAEMMMETKRNVYSLEDNKIKRHKSSDLSFSSKERKDKLAERISALQQLVSPYGKTDTASVLLEGMQYIQFLQEQVKVLSAPYLQATPSTTEEEVEEYSLRSKGLCLVPLEYTSEVAQTNGADIWAPVKTPTSSHAFNLSSSNSPFQ | not soluble |
| MMEMITIKPGKITVQANPNMPKEVAELFRKQHYEIVGRHSGVKLCHWLKKSLTEGRFCYKQKFYGIHSHRCLQMTPVLAWCTHNCIFCWRPMENFLGTELPQPWDDPAFIVEESIKAQRKLLIGYKGNPKVDKKKFEEAWNPTHAAISLSGEPMLYPYMGDLVEEFHKRGFTTFIVTNGTIPERLEEMIKEDKLPTQLYVSITAPDIETYNSVNIPMIPDGWERILRFLELMRDLPTRTVVRLTLVKGENMHSPEKYAKLILKARPMFVEAKAYMFVGYSRNRLTINNMPSHQDIREFAEALVKHLPGYHIEDEYEPSRVVLIMRDDVDPQGTGVEGRFIKH | soluble |
| MVVFEITILGANGGPTEYGTQCFILKPARTEDPELIAVDGGAGMYQLREMLVQGRNENEGDDELVPSFYEHDREPIEFFIDSKLNIQKGLSKSLLQSLKRQGEHFESANTMKKTYEVFQGITDYYITHPHLDHISGLVVNSPSIYEQENSKKKTIWGLPHTIDVLQKHVFNDLIWPDLTAERSRKLKLKCLNPKEVQKCTIFPWDVIPFKVHHGIGVKTGAPVYSTFYIFRDRKSKDCIIVCGDVEQDRRESEESLLEEFWSYVAENIPLVHLKGILVECSCPLSSKPEQLYGHLSPIYLINELSNLNTLYNSSKGLSGLNVIVTHVKSTPAKRDPRLTILEELRFLAEERNLGDLRISIALEGHTLFL | not soluble |
| MGSDKIHHHHHHMDHAIYTAMGGASQSLEKQAITANNLANASTPGFRAQLSALRAVPVNGLTLPTRTLVVASTPGADMTEGVMNYTGRAMDVALPKESWLAVQTANGGEAYTRNGNMEINADGQLTIQGRVVMGDGGPIDIPPQAQISISADGTISALNAGDPPNTIAQLGRLKLVKATGQEVERSDDGLFRLTQQAQQQRGNVLQNDPTVRIMPGVIEGSNVNTVDTMVDMIANARRFEMQMKVISSVDDNAQRANQILAMG | not soluble |
| MGSDKIHHHHHHMALFEGYERRIDGINTVLKKYGMNSIEDAKKVCDEKGINVYDIVRSIQPICFENACWAYTLGAAIAIKNGCTSASDAAKNIGEGLQAFCIPGSVADDRKVGLGHGNLGAMLLSEDAKCFAFLAGHESFAAAEGAIGIAKSANKVRKEPLRVILNGLGKDAAQIISRINGFTYVQTQFDYYTGELKIVKETAYSKGERAEVRCFGADDVREGVAIMHHEGVDVSITGNSTNPTRFQHPVAGTYKKECFEMGKKYFSVASGGGTGRTLHPDNMAAGPASYGMTDTMGRMHSDAQFAGSSSVPAHVDMMGLIGMGNNPMVGATVAVAVAIEEAMK | not soluble |
| MGSDKIHHHHHHMTTATQSSAPGVNVDQAEVEKFSALAARWWDPESEFKPLHAINPLRLGWIQETAGSLSGKRVLDMGCGGGILSESMAVAGAQVTGIDLAEKSLKIARLHGLESGVKVDYRAVPVEELAAEQPGQYDVVTCMEMLEHVPDPASVVRACAALAKPGGWVFFSTLNRNPKSFLFAIVGAEYVLRLLPRGTHSYDSFIKPSELATSARQAGLEPTGMRGMEYNPITQVYSLSANTSVNYLMSTRK | not soluble |
| MDIRARTKIIDIYSNLKYKKPLKSFQKILTTSDSDNCEDFFNIGLNIDKNKITAIGFDGDGCIISTIATELSIKAIENKTINQAKKILSDLIATYKDKNSANQVVEELKLLIEMNVTEKRLQCLLLTPSNLLQWFKNF | not soluble |
| DKREYFVYLPPTYGKGDNHYSVIYMQDGDIVIKILNELMDLIENKSKKDVYDESIIVGVKPIVRNDDYTPWEAEAISKGSSEFGGRGDIYLNFLIKKLKPYIDNKYRTKKEKN | not soluble |
| VTSGTALPSADDLLVLLAVGRTGRFNTAADDLGVNHTTISRRIASLEKSLGGRVLVKAAGGWELTDLGRQALTAAERVEAAVHGLVAEPGRADHLKGVVRVSATDGFSAYIAAPAGALIRSRHPEVSVEIVAITRRASQHRSGLDIEIVVGKPQVHRAEALWLADYTLGLYGAKSYLSAHGTPRQVGDLADHSLVYFIDSMLQVDELDLARRLTVSMRESVTSTNVFVHVEATRASAGIGLLPCFMADRHDDLVRVLPGQVEATLAYWLVARPESLRRPEVAAVVGAIRETVESQRDALAGQ | not soluble |
| MGSDKIHHHHHHMVTIVPINEEERASIINGLKSSVPATKLITLKKIVDLTVLRPESLQYMEMTDKMAIQRIVSGIERIMEYDIDEVLKREASIALEKLKVTLGSKFVQNLFYCQNCNGVVDIGWENCANCGASLAEMEFAETKPCPNCNKHTSENWNNCAHCGFQLIKEEDKIQKCSGCKREVDPTWMVCPYCGTRLKVSKK | not soluble |
| MKAMHMEQKIYKAKFSEYQLADNFINFNYLLKFKLGPEDVRAKGAFSTIFESTMLDWDLQLHKQFAGHILHSRESNWVISLNGSGVRDSYPPLHKLYFKVKAMGSDGSIKKSLKYFIDGLPIAPAERRGRMDHRSYTTLQNTQFERDLSTLIAEAKKKAQTIQLETRLEFKKNDLVDMKYLLGNGAPNMPDSLDYYFDAITNKSRHDLKLKTSDGMHFVMTNKEIVCLASQFFRQHLKDTTTEYTVGRADSVQSIDICLTYMITGIYKKPALLSPKLAFEIFALAMQWKVFEPKVLKNSIEKHCCEELQKNYEDIMYVCNMLIIADDAQFANVQNCCIATLVFYHAHDFIRIFVIGNHPLKERFSRRQEFLRPSLTMQVKRAFAASNESKCFIKFLPAIGED | not soluble |
| MTLSFRVNPEYAAMSEIVPGLFICGVSALSKDEMKKHKITHIINATTEVPNLRSLGDIQRTKLWLEDTPQTYIYPHLELQSDQIQALIADGGKVLVHCVAGVSRSASICLAFLLKYRCRNLREAYHLMKSKRSMVRPNLGFWRQLIAYEQNVKENAGSVRLVRDEAQPEQLLPDVYLNIAIPARPASPEQDPNMIPDEPRERRNSGFKSKFRPVLEPVMEMAEAVC | not soluble |
| GPGSMSYYDKSSSVGYDERDKELNEELEAMLARTPPHIQRHLQQRIHDGILQRMKEETTRKCWEFVKKYEGCVNSVQPYNIRECLPHRDALNDCAHEINCEDNYQKYRLLYLHGELLKLHEHRTGQKMEALKSRVPDSIRTWKSDYAPKYADMMSEVGAKPFTGEGENLDDE | soluble |
| MAVIYKTTAHASAGREGVVQTVDGFTVSLAFPKPGATHQDKNNPEQLFASAYAGCFSQAVRVVLQQHQLQLATQPIVGVSVELHDQDGLFHIKAGVELAITGVDQTTAQTVITAAHAMCPFSRLIKPENFLGLTLNGAKL | soluble |
| MRDIMSSPPITTLPMTSVKEAAKIMLENRVGSLIVVNERNTLLGILTKTDIIREVVAKGLDPESVRVGDIMTRNPYYVYTDDSVERAASLMGEHNIGHLPVLDPETEKPVGIVTKTDIVKLAPNYINVIYSLKQEIDRRERLKRIRK | soluble |
| MAVSVGEGPDTKPTARGQPAAVGRVVVLSGPSAVGKSTVVRCLRERIPNLHFSVSATTRCPRPGEVDGVDYHFIDPTRFQQLIDQGELLEWAEIHGGLHRSGTLAQPVRAAAATGVPVLIEVDLAGARAIKKTMPEAVTVFLAPPSWQDLQARLIGRGCETADVIQRRLDTARIELAAQGDFDKVVVNRRLESACAELVSLLVGTAPGSPGVPRGKLAAALEHHHHHH | soluble |
| MVTKEVGHDFLARLGKKRLRPGGVEATNWLIEQGQFSQDCHVLEVACNRCTTAIELAKTFGCQIDAVDLNPKVVKEAQERVAVEGLTRHITVSQASALSLPFPDNHFDIVINEAMLTMLNAQAKEKALNEYWRVLKPGGRLLTHDVAYEDPKTRQVLDELRQTIHVNVAPLSLTGWQALYQEHGFSQVTYHHGKMSLMTPRGMIKDEGLMNTLNIMRRGLKKENRQQFLKMRRFFTRTGKNLCYIAVKSVK | not soluble |
| MGSDKIHHHHHHMNFYRDATWVLEDIEKEAAKERISGSMQTLVLKSCKRYKLKSNPKHIYAVLDSCWKYKPYLEKVMKKAHILEDIPKKKGKPLFSRLTLLLLCHDLLLSKQKRIQMGKHPIKDYVLKFKSPLHSEMVKLKLKLKVRELSELVLSEDISNDLPPVRWIRINPLKCHPNGETEPVLAELRKKFTLKVDKWSELVPGSIYYDEFIPNLFGIHPSDKITAHELYKHGKIIIQDRASCFPAHILNPGPSDIVIDSCSAPGNKTTHTASYIYPEPPKDNNTRIYAFEKDPERAKVLQKMIKIAGCSPNISVNVGDFTKLATPEKYKDVTCFIVDPSCSGSGIFGRKFFDSFNRRKIDDKDDDGGIVPDEQEEFIAKEELQTRLAKLSSFQFQMVKHAMSFPAAKKIVYSTCSIHAEENERVVIDLLLDKSVREWGWKVAPKREVIPSWPRRGKVEEFEEVFRDGVTYDPQQLAEGCIRALPKSDGGIGFFAVCFERD | not soluble |
| MENFHFEHRGPRRDRFARERTGRPEGPHRHGHRRGRFGPEGDPGFGPGMHFGRGRGRGGRGRRGDVRSAILLLLTEEPMHGYELIQQIVERSDGVWKPSPGSIYPALSQLEDEGLVLIEKVAGRKTARLTDEGEAFVEANKTELGTPWDDVRESVGRPAEDLRGLIGLLMGAAGQVAAVGDDEQVRRAGEILTEARRAMYRLLAEDDQSEAGKDDTDS | not soluble |
